Numbering of substitutions follows the chain as printed.
B1: TM-46 (antibody, V domains shown)
VH: QVQLQQSGADLVKPGASVKISCKASGYAFSSFWMNWVKLRPGKGLEWIGQIYPGDGDTDYNGKFKDKATLTADTSSNTAYMQLSRLTSEDSAVYFCARGDGFSYFDYWGQGTILTVSS
VL: QIVLTQSPVIMSASPGERVTMTCCASSRVNYMHWYQQKSGSYPKRWIYDTSKLASGVPGRFSGSGSGTSYSLTISSMEAEDAATYYCQQWSSNPPTFGGGTKLEIK
B2: TM-54 (antibody, V domains shown)
VH: QVQMQQSGPVLVKPGASVTLSCKASGYTFTTYDLNWVKQRPGQGLEWIGWIYPRGGSTEYNEKFKGKATLTVDTSSSTAYMELHSLTSEDSAVYFCAKYSIYAMDYWGQGTSVTVSS
VL: DVLMTQTPLSLPVSLGDQASISCRSSQSIVHGNGNTYLEWYLQKPGQSPKLLIYKVSNRFSGVPDRFSGSGSGTDFTLKISRVEAEDLGVYYCFQGSHVPWTFGGGTKLEMK
B3: TM-1 (antibody, V domains shown)
VH: QVQLQQSGAELVRPGTSVKVSCKASGYAFTNYLIEWVKQRPGQGLEWIGVINPGSGGTKYNEKLKGKATLTADKSSSTAYMQLSSLTSVDSAVYFCARRGYTIYDFYAMDYWGQGTSVTVSS
VL: B2 VL with Q18H, H31Y, G32N, G96V, W101F, G105S, M111I
B4: TM-19 (antibody, V domains shown)
VH: DVQLQQSGAELVRPGASVKLSCTASGFNIKDYYMYWVKQRPEQGLEWIGRIDPEDGDTENAPKFRGMATMTADTSSNTAYLQLNSLTSEDTAVYYCTTRIGNLYHVMDYWGHGTSVTVSS
VL: B2 VL with G32S, S48A, Y54D, S57F, W101F, G105S, M111I
B5: TM-22 (antibody, V domains shown)
VH: QVQLQQSGPELVKPGASVKISCKASGYRFTSYYIHWVKQRPGQGLEWIGWIYPGNGITNYNEKFKGKATLTADTSSSTAYMQLSSLTSEDSAVYYCASPYYGIRNCYFDVWGTGTTVTVSS
VL: B2 VL with Q18H, S26G, G32S, V90I, M111I
B6: TM-79 (antibody, V domains shown)
VH: EVQLQQSGPELVKPGASVKMSCKASGYTFTNYVMHWLKQKPGQGLEWIAHITPHNDGTKYNEKFKGKATLTSDRSSSTAYMELNSLTSEDSAIYYCARSGQFGRGDYFHYWGQGTTVTVSS
VL: DIVLTQSPASLAVSLGQRATISCRASKSVSTSGSIYIHWYQQKPGQPPKLLIYLTSNLESGVPARFSGSGSGTDFTLNIHPVEEEDAATYYCQHSGELPWTFGGGARLEIK
B7: TM-15 (antibody, V domains shown)
VH: QVQLQQPGAEFVRPGASVKLSCKASGYTFTNYWITWVKQRPGHGLEWIGDIYPGSGNSNYNESFKRKATLTVDTSSSTAYMHLSSQTSEDSAVYFCARKAYGGFPYWGQGTLVTVSA
VL: DIQMTQSPASLSVSVGETVTITCRVSENIYNNLAWYQQKQEKSPQLLVFAATNLADGVPSRFSGSGSGTQFSLKINSLQSEDFGTYYCQHFWDTPFTFGSGTKLEIK
B8: TM-51 (antibody, V domains shown)
VH: QVQLQQPGAELVKPGASVKLSCKASGYTFTTYWIDWVKQRPGQGLEWIGNMFPGSSRTNYNEKFKSRATLTVDTSSSTAYMQLSSLTSDDSAVYYCARKEGLWTYGYDGGAWFAYWGQGTLVTVSA
VL: DIVMSQSPSSLAVSVGEKVTMSCKSSQSLRNSRTRKNYLAWYQQKPGQSPKLLIYWASTRESGVPDRFTGSGSGTDFTLTISSVQAEDLAIYYCKQSYNLLTFGAGTKLELK
B9: TM-26 (antibody, V domains shown)
VH: QVQLQQSGAELIRPGTSVKVSCKASGYAFTNYLIEWVKKRPGQGLEWIGVINPGSGITNYNEKFKGKATLTADKSSSTAYMQLSSLTSEDSAVYFCARSDFITTVVADYWGQGTTVTVSS
VL: DIVVTQTPLSLPVSFGDQVSISCRSSQSLTNYYGNTYLSWYLHKPGQSPQLLIYGISNRFSGVPDRFSGSGSGTDFTLKISTIKPEDLGMYYCLQGTHQPRTFGGGTKLEIK
B10: TM-5 (antibody, V domains shown)
VH: QVQLQQSGTELARPGASVKVSCKASGYIFTTYGITWVKQRGGQGLEWIGEIYPRSDNTYYNEKFKDKATLTADKSSSTAYMELRSLTSEDSAVYFCARSKGSGTGDYWGQGTTVTVSS
VL: DIQMTQSPASLSASVGETVTITCRASENIYIYLAWYQQKQGKTPQLLVYNGKMLAENVPSRFSGSGSGTQFSLKINSLQPEDFGSYYCQHHYGSPPAFGAGTKLELK
B11: TM-80 (antibody, V domains shown)
VH: QVQLQQPGAELVKPGASVKLSCKASGYTFTTFWMHWVKQRPGQGLEWIGNIDPSDSETHYNQEFKDKATLTVDRSSNTAYMQLSSLTSEDSAVYYCARSSNWDNFDYWGQGTAVTVSS
VL: DIVMTQAAPSVPVTPGESVSISCRSSQSLLHVNGHTYLYWFLQRPGQSPQLLIYRMSNLASGVPDRFSGSGSGTVFTLRISRVETEDVGIYYCMQHLQYPFTFGSGTKLEIK
B12: TM-42 (antibody, V domains shown)
VH: QVQLQQSGAELAKPGASVKLSCKASGYTFTNYWMHWVKKRPGQGLEWIGYINPSSGYTKYNQKFKDKATLTADKSSNTAYMQLSSLTYEDSAVYYCTREGGSISDWYFDVWGTGTTVTVSS
VL: B11 VL with V11L, Q27K, V32S, H35N, V75A, T85A, I90V, Q98E, F101Y, S105G
B13: TM-77 (antibody, V domains shown)
VH: QIQLQQSGAELVRPGASVKLSCKASGYTFTDYEMHWVKQTPVHGLEWIGVIDPETGGTAYNQMFKGKATLTADKSSSTAYMDLRSLTSEDSAVYYCVKYGIEGYWGQGTTLTVSS
VL: DVVMTQIPLTLSVTLGQPASISCKSSQSLFHSNGKTYLNWLLQRPGQSPKLLIYMVSKLESGVPDRFSGSGSGTDFTLKISRVEAEDLGVYYCLQVTHFPLTFGAGTKLELK
B14: TM-18 (antibody, V domains shown)
VH: EVRLQQSGPELVKPGASVKISCKTSGYTFTDYYMNWVKQSHGKSLEWIVNINPNNGDAFYNQKFKGKATLTVDKSSNTAYLDLRSLTSEDSAVYYCAREGQLRLRRVYAMDYWGQGTSVTVSS
VL: DIVLAQSPASLAVSLGQRATISCRASKSVSISVYTYVHWYQQKPGQPPKLLIYLASNLESGVPARFSGSGSGTDFTLNIHPVEEEDAATYYCQHSRELPYTFGGGTKLEIK
B15: TM-7 (antibody, V domains shown)
VH: EVQLQQSGPVLVKPGPPVKISCKASGFTFTDYYIHWVKLSHGKSLEWIGLVYPYNGDTDYNQKFKGKATLTVDTSSSTAYMELNSLTSEDSAVYYCARTYYANSPDYWGQGTTVTVSS
VL: DIVMTQSPSSLSVSAGEKVTMSCKSSQSLLNSGNQRNYLAWYQQKPGQPPKLLIYGASTRESGVPDRFTGSGSGTDFTLTISNVQAEDLAVYYCQNDHSYPLTFGAGTKLELK

The binders below were run against human TMEM106B (human, UniProt Q9NUM4 2-274) (assay: cell-based or functional assay).
Also: test concentration or dose not given here.

| Binder | % Protection from CPE [%] |
| --- | --- |
| B1 | 4.7 |
| B2 | 68.1 |
| B3 | 6.4 |
| B4 | 99.8 |
| B5 | 4.4 |
| B6 | 4.5 |
| B7 | 63.5 |
| B8 | 5.4 |
| B9 | 4.3 |
| B10 | 63.3 |
| B11 | 78 |
| B12 | 28.4 |
| B13 | 4.7 |
| B14 | 100 |
| B15 | 15.8 |
